Assay results from publication PMC11734722.

Key:
[1] = molecular target: β-synuclein (β-syn) peptide, 36 to 45 amino acids, all D type; assay: ITC
[2] = molecular target: α-synuclein monomer (not stated (mouse or human recombinant monomer bought)) (UniProt O55042); assay: MST

α-synuclein preformed fibrils (α-syn PFF) (from UniProt O55042 1-140) (natural protein)
Kd [1]: 0.386 µM

α-synuclein monomer (from UniProt O55042 1-140) (natural protein)
Kd [2]: 43.8 µM
